This note sets out measurements from PMC3660260.

Experiment [1] concerns the target HCV envelope glycoprotein E2 (in lysate of HCV-infected Huh7.5 cells) (hepatitis C virus (strain not stated)) (UniProt Q99IB8).
The target is the same in experiment [2]. The source holds these as a separate data set.

UniProt Q99IB8, sequence (Q99IB8 384-750): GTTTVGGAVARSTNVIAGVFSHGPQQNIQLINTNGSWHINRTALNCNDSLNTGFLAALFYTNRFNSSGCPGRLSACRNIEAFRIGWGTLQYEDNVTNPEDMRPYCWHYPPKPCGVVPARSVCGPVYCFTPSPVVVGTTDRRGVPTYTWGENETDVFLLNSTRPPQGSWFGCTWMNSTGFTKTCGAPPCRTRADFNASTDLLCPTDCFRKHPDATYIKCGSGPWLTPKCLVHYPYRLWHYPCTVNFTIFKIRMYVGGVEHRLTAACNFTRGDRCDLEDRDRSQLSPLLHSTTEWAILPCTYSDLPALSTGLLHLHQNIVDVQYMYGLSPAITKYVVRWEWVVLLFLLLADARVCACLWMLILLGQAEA

In experiment [1], “griffithsin (from UniProt P84801 1-121) (natural protein)” yielded an EC50 for inhibition of HCV JFH-1 (genotype 2a) in the HCVcc full-replication assay in Huh7.5.1 cells (HCV core protein in supernatant) of 0.4 nM. Further, in experiment [2], the EC50 for inhibition of replication of JFH-1 (genotype 2a) HCVcc in Huh7.5.1 cells was found to be 0.3 nM, the EC50 for inhibition of replication of the J6/JFH-1 HCVcc chimera (structural genes of genotype 2a J6) in Huh7.5.1 cells was found to be 14 nM and the EC50 for inhibition of replication of the TH/JFH-1 HCVcc chimera (structural genes of genotype 1b TH) in Huh7.5.1 cells worked out at 2.2 nM.
Taken in the same sequence, the figures for “scytovirin (from UniProt P86041 1-95) (natural protein)” were 16.9 nM, 3.2 nM, 50.8 nM and 57.5 nM.
